From patent US20150337049A1 (Genmab, published 2015)
Numbering of substitutions follows the chain as printed. Names and notes keep the numbering of the source.

B1: bsIgG1-CD3×HER2 (IgG1-huCLB-T3/4×HER2-169), wild-type Fc (bispecific antibody)
heavy 1: not shown
VL 1: EIVLTQSPATLSLSPGERATLSCSASSSVTYVHWYQQKPGQAPRLLIYDTSKLASGIPARFSGSGSGTDFTLTISSLEPEDFAVYYCFQGSGYPLTFGSGTKLEMR
heavy 2: not shown
VL 2: EIVLTQSPATLSLSPGERATLSCRASQSVSSYLAWYQQKPGQAPRLLIYDASNRATGIPARFSGSGSGTDFTLTISSLEPEDFAVYYCQQRSNWPRTFGQGTKVEIK
notes: also called bispecific IgG1-CD3×HER2; (bs)IgG-CD3×HER2
B2: bsIgG1-CD3×HER2-DA (IgG1-huCLB-T3/4×HER2-169 with D265A) (bispecific antibody)
heavy 1: not shown
VL 1: B1 VL 1
heavy 2: not shown
VL 2: B1 VL 2
B3: bsIgG1-CD3×HER2-DANQ (IgG1-huCLB-T3/4×HER2-169 with D265A/N297Q) (bispecific antibody)
heavy 1: EVQLVESGGGLVKPGGSLRLSCAASGFTFSSYGMFWVRQAPGKGLEWVATISRYSRYIYYPDSVKGRFTISRDNAKNSLYLQMNSLRAEDTAVYYCARRPLYGSSPDYWGQGTLVTVSSASTKGPSVFPLAPSSKSTSGGTAALGCLVKDYFPEPVTVSWNSGALTSGVHTFPAVLQSSGLYSLSSVVTVPSSSLGTQTYICNVNHKPSNTKVDKRVEPKSCDKTHTCPPCPAPELLGGPSVFLFPPKPKDTLMISRTPEVTCVVVAVSHEDPEVKFNWYVDGVEVHNAKTKPREEQYQSTYRVVSVLTVLHQDWLNGKEYKCKVSNKALPAPIEKTISKAKGQPREPQVYTLPPSREEMTKNQVSLTCLVKGFYPSDIAVEWESNGQPENNYKTTPPVLDSDGSFLLYSKLTVDKSRWQQGNVFSCSVMHEALHNHYTQKSLSLSPGK
VL 1: B1 VL 1
heavy 2: QVQLVQSGAEVKKPGASVKVSCKASGYTFTNYGISWVRQAPGQGLEWMGWLSAYSGNTIYAQKLQGRVTMTTDTSTTTAYMELRSLRSDDTAVYYCARDRIVVRPDYFDYWGQGTLVTVSSASTKGPSVFPLAPSSKSTSGGTAALGCLVKDYFPEPVTVSWNSGALTSGVHTFPAVLQSSGLYSLSSVVTVPSSSLGTQTYICNVNHKPSNTKVDKRVEPKSCDKTHTCPPCPAPELLGGPSVFLFPPKPKDTLMISRTPEVTCVVVAVSHEDPEVKFNWYVDGVEVHNAKTKPREEQYQSTYRVVSVLTVLHQDWLNGKEYKCKVSNKALPAPIEKTISKAKGQPREPQVYTLPPSREEMTKNQVSLTCLVKGFYPSDIAVEWESNGQPENNYKTTPPVLDSDGSFFLYSRLTVDKSRWQQGNVFSCSVMHEALHNHYTQKSLSLSPGK
VL 2: B1 VL 2
B4: bsIgG1-CD3×HER2-DAPS (IgG1-huCLB-T3/4×HER2-169 with D265A/P331S) (bispecific antibody)
heavy 1: B3 heavy 1 with Q299N, P333S
VL 1: B1 VL 1
heavy 2: B3 heavy 2 with Q301N, P335S
VL 2: B1 VL 2
B5: bsIgG1-CD3×HER2-LALA (IgG1-huCLB-T3/4×HER2-169 with L234A/L235A) (bispecific antibody)
heavy 1: B3 heavy 1 with L236A, L237A, A267D, Q299N
VL 1: B1 VL 1
heavy 2: B3 heavy 2 with L238A, L239A, A269D, Q301N
VL 2: B1 VL 2
B6: bsIgG1-CD3×HER2-LFLE (IgG1-huCLB-T3/4×HER2-169 with L234F/L235E) (bispecific antibody)
heavy 1: B3 heavy 1 with L236F, L237E, A267D, Q299N
VL 1: B1 VL 1
heavy 2: B3 heavy 2 with L238F, L239E, A269D, Q301N
VL 2: B1 VL 2
B7: IgG1-CD3-DA (IgG1-huCLB-T3/4-F405L with D265A) (antibody)
heavy: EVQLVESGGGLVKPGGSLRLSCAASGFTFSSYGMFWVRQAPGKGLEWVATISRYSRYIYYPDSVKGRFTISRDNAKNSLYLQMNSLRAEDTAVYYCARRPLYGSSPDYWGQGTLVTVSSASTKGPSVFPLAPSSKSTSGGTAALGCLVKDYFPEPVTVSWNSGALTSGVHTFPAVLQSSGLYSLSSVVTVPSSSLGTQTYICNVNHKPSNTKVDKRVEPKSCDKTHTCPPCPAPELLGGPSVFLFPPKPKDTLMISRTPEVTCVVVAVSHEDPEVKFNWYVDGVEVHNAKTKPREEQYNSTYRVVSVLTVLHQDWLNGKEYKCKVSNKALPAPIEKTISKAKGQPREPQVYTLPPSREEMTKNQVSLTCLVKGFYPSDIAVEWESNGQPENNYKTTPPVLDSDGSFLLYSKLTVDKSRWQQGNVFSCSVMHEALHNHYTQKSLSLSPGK
VL: B1 VL 1
notes: IgG1, F405L
B8: IgG1-CD3-DANQ (IgG1-huCLB-T3/4-F405L with D265A/N297Q) (antibody)
heavy: B3 heavy 1
VL: B1 VL 1
notes: IgG1, F405L
B9: IgG1-CD3-DAPS (IgG1-huCLB-T3/4-F405L with D265A/P331S) (antibody)
heavy: B3 heavy 1 with Q299N, P333S
VL: B1 VL 1
notes: IgG1, F405L
B10: IgG1-CD3-LALA (IgG1-huCLB-T3/4-F405L with L234A/L235A) (antibody)
heavy: B3 heavy 1 with L236A, L237A, A267D, Q299N
VL: B1 VL 1
notes: IgG1, F405L
B11: IgG1-CD3-LFLE (IgG1-huCLB-T3/4-F405L with L234F/L235E) (antibody)
heavy: B3 heavy 1 with L236F, L237E, A267D, Q299N
VL: B1 VL 1
notes: IgG1, F405L
B12: IgG1-CD3-LFLEDA (IgG1-huCLB-T3/4-F405L with L234F/L235E/D265A) (antibody, name in EU numbering)
heavy: B3 heavy 1 with L236F, L237E, Q299N
VL: B1 VL 1
notes: IgG1, F405L
B13: IgG1-CD3-LFLENQ (IgG1-huCLB-T3/4-F405L with L234F/L235E/N297Q) (antibody)
heavy: B3 heavy 1 with L236F, L237E, A267D
VL: B1 VL 1
notes: IgG1, F405L
B14: IgG1-CD3-LFLEPS (IgG1-huCLB-T3/4-F405L with L234F/L235E/P331S) (antibody)
heavy: B3 heavy 1 with L236F, L237E, A267D, Q299N, P333S
VL: B1 VL 1
notes: IgG1, F405L
B15: IgG1-CD3-N297Q (IgG1-huCLB-T3/4-F405L with N297Q) (antibody)
heavy: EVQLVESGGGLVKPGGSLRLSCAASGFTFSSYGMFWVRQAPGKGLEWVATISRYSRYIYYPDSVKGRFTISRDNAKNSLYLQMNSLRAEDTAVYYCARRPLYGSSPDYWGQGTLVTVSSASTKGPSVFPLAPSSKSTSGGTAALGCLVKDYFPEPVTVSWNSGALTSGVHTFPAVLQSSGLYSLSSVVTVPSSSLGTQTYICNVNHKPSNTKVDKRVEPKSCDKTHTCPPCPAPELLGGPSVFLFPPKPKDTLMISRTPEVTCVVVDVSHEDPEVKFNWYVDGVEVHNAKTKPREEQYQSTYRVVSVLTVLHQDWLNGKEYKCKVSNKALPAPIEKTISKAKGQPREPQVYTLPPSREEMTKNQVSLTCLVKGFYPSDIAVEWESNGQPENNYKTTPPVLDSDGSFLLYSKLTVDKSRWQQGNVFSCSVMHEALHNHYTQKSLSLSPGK
VL: B1 VL 1
notes: IgG1, F405L; also called NQ
B16: IgG1-CD3-… (IgG1-huCLB-T3/4-F405L with L234F/L235E/D265A/N297Q/P331S) (antibody)
heavy: B3 heavy 1 with L236F, L237E, P333S
VL: B1 VL 1
notes: IgG1, F405L

target: T1, HER2 on HER2-positive AU565 cells (human, UniProt P04626 23-1255); assay: FACS, AU565 cells
T1 construct: whole, on cells
Description: Cells (1×10^5 cells/well) were incubated in polystyrene 96-well round-bottom plates (Greiner bio-one 650101) with serial dilutions of antibody preparations (range 2 to 10000 ng/mL in 4-fold dilutions for Jurkat cells and range 1 to 3000 ng/mL in 4-fold dilutions for on AU565 cells) in 100 μL PBS/0.1% BSA/0.02% azide at 4° C. for 30 min.
After washing twice in PBS/0.1% BSA/0.02% azide, cells were incubated in 100 μL with secondary antibody at 4° C. for 30 min. As a secondary antibody, R-Phycoerythrin (PE)-conjugated goat-anti-human IgG F(ab′)₂ (109-116-098, Jackson ImmunoResearch Laboratories, Inc., West Grove, Pa.) diluted 1/100 in PBS/0.1% BSA/0.02% azide, was used for all experiments. Next, cells were washed twice in PBS/0.1% BSA/0.02% azide, resuspended in 150 μL PBS/0.1% BSA/0.02% azide and analyzed on a FACS CantoII (BD Biosciences). Binding curves were analyzed using non-linear regression (sigmoidal dose-response with variable slope) using GraphPad Prism V5.04 software (GraphPad Software, San Diego, Calif., USA).

Q: Does B1 bind?
A: Result: binds

Q: Does B2 bind?
A: Result: binds

Q: Does B3 bind?
A: Result: binds

Q: Does B4 bind?
A: Result: binds

Q: Does B5 bind?
A: Result: binds

Q: Does B6 bind?
A: Result: binds

target: T2, C1q (from 3% pooled human serum) (human, UniProt P02745 23-245; P02746 28-253; P02747 29-245); assay: ELISA, antibody coated, 3% pooled human serum, anti-C1q detection
T2 construct: Native C1q of pooled human serum, detected with rabbit anti-human C1q
Description: Plates were washed and blocked with PBS supplemented with 0.025% Tween 20 and 0.1% gelatine. […] Detection was performed by addition of 1 mg/mL 2,2′-azino-bis(3-ethylbenzothiazoline-6-sulfonic acid) (ABTS; Roche, Mannheim, Germany) for about 30 min. The reaction was stopped by the addition of 100 μL 2% oxalic acid. Absorbance was measured at 405 nm in a microplate reader (Biotek, Winooski, Vt.). Log transformed data were analyzed by fitting sigmoidal dose-response curves with variable slope using GraphPad Prism software.

Q: Does B1 bind?
A: Result: binds

Q: Does B2 bind?
A: Result: no binding (tested: coated at 7-30000 ng/mL)

Q: Does B3 bind?
A: Result: no binding (tested: coated at 7-30000 ng/mL)

Q: Does B4 bind?
A: Result: no binding (tested: coated at 7-30000 ng/mL)

Q: Does B5 bind?
A: Result: no binding (tested: coated at 7-30000 ng/mL)

Q: Does B6 bind?
A: Result: no binding (tested: coated at 7-30000 ng/mL)

Q: Does B7 bind?
A: Result: no binding (tested: coated at 7-30000 ng/mL)

Q: Does B8 bind?
A: Result: no binding (tested: coated at 7-30000 ng/mL)

Q: Does B9 bind?
A: Result: no binding (tested: coated at 7-30000 ng/mL)

Q: Does B10 bind?
A: Result: no binding (tested: coated at 7-30000 ng/mL)

Q: Does B11 bind?
A: Result: no binding (tested: coated at 7-30000 ng/mL)

Q: Does B12 bind?
A: Result: no binding (tested: coated at 7-30000 ng/mL)

Q: Does B13 bind?
A: Result: no binding (tested: coated at 7-30000 ng/mL)

Q: Does B14 bind?
A: Result: no binding (tested: coated at 7-30000 ng/mL)

Q: Does B15 bind?
A: Result: no binding (tested: coated at 7-30000 ng/mL)

Q: Does B16 bind?
A: Result: no binding (tested: coated at 7-30000 ng/mL)
